Our source for the stoichiometry N and Kd values is PMC8497518, “ssDNA recombineering boosts in vivo evolution of nanobodies displayed on bacterial surfaces” (Communications Biology, 2021).

A word on the stoichiometry N: it is the number of molecules, sites or subunits per partner or assembly.

Where a chain is given by its changes, count along the chain named. Numbers in names are those of the source.

For assay [1], the target named is TirM^EPEC, extracellular domain of the translocated intimin receptor (Tir) of enteropathogenic E. coli (enteropathogenic E. coli (EPEC)). As to the kind of experiment: SEC; purified TirM^EPEC in solution, size exclusion chromatography. (SEC sorts molecules by how far they enter the pores of the column.)
In assay [2] the target is T1, TirM^EHEC, extracellular domain of the translocated intimin receptor (Tir) of enterohaemorrhagic E. coli (Escherichia coli EHEC; strain not …, UniProt Q7DB77, biotin (NHS-biotin, biotin:protein 20:1) for flow cytometry and MACS).
T1 construct: Translocated intimin receptor Tir of enterohaemorrhagic E. coli (EHEC), extracellular TirM domain; also called EHEC TirM; former antigen
As to the kind of experiment: flow cytometry on cells; E. coli displaying the intimin-Nb fusion (multivalent) incubated 90 min at 4 °C in PBS with biotinylated antigen (0-250 nM TirM^EPEC or 0-50 nM TirM^EHEC), stained with streptavidin-allophycocyanin; median fluorescence fitted to one-site specific binding; apparent KD. To be noted: one partner purified.

In assay [3] the target is T1, TirM^EHEC, extracellular domain of the …. As to the kind of experiment: ELISA; Maxisorp plates coated with His-tagged TirM at 10 ug/mL in PBS; purified monovalent Nb in 3% skimmed milk in PBS, 0-100 nM (TD4) or 0-400 nM (mutants), 90 min at 23 °C; detected with anti-E-tag; one-site specific binding fit; apparent KD. Particulars: both partners purified. (ELISA stands for enzyme-linked immunosorbent assay.)
Target sequence in this assay (Q7DB77 252-362): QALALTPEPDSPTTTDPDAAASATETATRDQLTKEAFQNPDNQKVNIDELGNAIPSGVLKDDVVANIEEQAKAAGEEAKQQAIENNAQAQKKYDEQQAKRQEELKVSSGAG

Assay [4] concerns the target T2, TirM^EPEC, extracellular domain of the translocated intimin receptor (Tir) of enteropathogenic E. coli (Escherichia coli EPEC; strain not …, UniProt B7UM99, biotin (NHS-biotin, biotin:protein 20:1) for flow cytometry and MACS).
T2 construct: Translocated intimin receptor Tir of enteropathogenic E. coli (EPEC), extracellular TirM domain; also called EPEC TirM; new antigen
The description is as above. Particulars: both partners purified.
Target sequence in this assay (B7UM99 255-362): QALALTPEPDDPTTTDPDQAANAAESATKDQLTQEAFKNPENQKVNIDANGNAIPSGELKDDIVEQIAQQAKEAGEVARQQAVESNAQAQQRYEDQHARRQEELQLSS

Assay [5] concerns the target T2, TirM^EPEC, extracellular domain of the …. The description is as above. To be noted: both partners purified. The source holds these as a separate data set.
Target sequence in this assay (B7UM99 255-362): as above
For assay [6] the target is unchanged. As to the kind of experiment: flow cytometry on cells; E. coli displaying the intimin-Nb fusion (multivalent) incubated 90 min at 4 °C in PBS with biotinylated antigen (0-250 nM TirM^EPEC or 0-50 nM TirM^EHEC), stained with streptavidin-allophycocyanin; median fluorescence fitted to one-site specific binding; apparent KD. Particulars: one partner purified.

For the molecule “TirM^EPEC, extracellular domain of the translocated intimin receptor (Tir) of enteropathogenic E. coli (domain or fragment)”, in assay [1], the stoichiometry N was 2.

B1: Nb TD4 displayed on E. coli as a fusion to the outer membrane anchoring domain of intimin (VHH)
VHH: QVQLVDAGGGSVQAGGSLTLSCVASGAAYSTNLLGWFRQAPGKEREGVASIYRGNSATNYADSVKGRFTISQDKTKYTIYLQMNSLKPEDSAMYYCAHGTAPYWHTPIPTLSEDKYFYWGQGTQVTVSS
notes: VHH TD4; multivalent on the bacterial surface; also called parental Nb; non-evolved TD4; not shown: intimin outer membrane anchoring domain, N-terminal, kept
As to B1, the Kd in assay [2] stood at 0.41 nM.

B2: Nb TD4^T108R, secreted His6-tagged VHH-HlyA fusion (monovalent, purified) (VHH)
VHH: B1 VHH with T106R
notes: as the VHH of m7 with T108R; also called Nb T108R
With B2, the Kd in assay [3] amounted to 4.61 nM; in assay [4], 176 nM.

B3: Nb TD4, secreted His6-tagged VHH-HlyA fusion (monovalent, purified) (VHH)
VHH: B1 VHH
notes: VHH TD4, as the VHH of m3; No cleavage of the HlyA part or the His tag is described; the fusion was detected by anti-E-tag in ELISA; also called parental TD4; non-evolved TD4; source: E. coli HB2151 with pVDL9.3 (HlyBD) and a pEHLYA derivative, secreted, purified from culture medium (Talon resin)
As for B3, the Kd in assay [3] was found to be 5.55 nM.

B4: Nb TD4^H107Y, secreted His6-tagged VHH-HlyA fusion (monovalent, purified) (VHH)
VHH: B1 VHH with H105Y
notes: as the VHH of m7 with H107Y; also called Nb H107Y
Consider B4, for which the Kd in assay [5] is 20.8 ± 2.31 nM; in assay [3], 47.7 nM; in assay [4], 20.1 nM.

B5: Nb TD4^D116G, secreted His6-tagged VHH-HlyA fusion (monovalent, purified) (VHH)
VHH: B1 VHH with D114G
notes: as the VHH of m7 with D116G; also called Nb D116G
Take B5: the Kd was 137 nM in assay [3] and 397 nM in assay [4].

B6: Nb TD4^H107Y displayed on E. coli as a fusion to the outer membrane anchoring domain of intimin (VHH)
VHH: B1 VHH with H105Y
notes: as the VHH of m3 with H107Y (CDR3); Evolved from TD4 by DIvERGE mutagenesis and MACS selection; also called Nb H107Y; not shown: intimin outer membrane anchoring domain, N-terminal, kept
Turning to B6, the Kd is 0.57 nM in assay [2] and 33.9 nM in assay [6].

B7: Nb TD4^D116G displayed on E. coli as a fusion to the outer membrane anchoring domain of intimin (VHH)
VHH: B1 VHH with D114G
notes: as the VHH of m3 with D116G (CDR3); Evolved from TD4 by DIvERGE mutagenesis and MACS selection; also called Nb D116G; not shown: intimin outer membrane anchoring domain, N-terminal, kept
For the molecule B7, the Kd is 0.58 nM in assay [2] and 17.9 nM in assay [6].

B8: Nb TD4^T108R displayed on E. coli as a fusion to the outer membrane anchoring domain of intimin (VHH)
VHH: B1 VHH with T106R
notes: as the VHH of m3 with T108R (CDR3); Evolved from TD4 by DIvERGE mutagenesis and MACS selection; also called Nb T108R; not shown: intimin outer membrane anchoring domain, N-terminal, kept
As to B8, the Kd in assay [2] is 0.36 nM; in assay [6] it was 27.6 nM.
